Test results from patent US20240327460A1, “NORA INHIBITORS AND METHODS OF USE” (priority 2021, published 2024).
Read-outs that look alike come from different tables or passages of the source.

What was measured:
[1] = system: MRSA; type: cell-based, Staphylococcus aureus; settings: 12.5 μg/ml norfloxacin
Description: To test the effects of peptides, overnight cultures of wild-type MRSA and MRSA^ΔnorA in TSB media were diluted 1:1,000 in TSB with varying concentrations of peptides, in the presence or the absence of norfloxacin (12.5 μg/ml). All the peptide concentrations contained equal amount of the DMSO vehicle. OD600nm was measured as a function of time in a BioScreen C device at 37° C. with shaking between measurements every 15 min. Three independent experiments were acquired; reported errors reflect the standard deviation among the independent experiments.

[2] = biological target: T1, NorA (Staphylococcus aureus, UniProt Q5HHX4); assay: Microscale thermophoresis (MST) binding of fluorescently labelled Fabs to NorA in PMAL-C8 amphipol; parameters: species or system S. aureus; settings: labelled Fab 40 nM
T1 construct: made in house; host or cells: C43 (DE3) E. coli
T1 sequence (Q5HHX4 whole entry, looked up): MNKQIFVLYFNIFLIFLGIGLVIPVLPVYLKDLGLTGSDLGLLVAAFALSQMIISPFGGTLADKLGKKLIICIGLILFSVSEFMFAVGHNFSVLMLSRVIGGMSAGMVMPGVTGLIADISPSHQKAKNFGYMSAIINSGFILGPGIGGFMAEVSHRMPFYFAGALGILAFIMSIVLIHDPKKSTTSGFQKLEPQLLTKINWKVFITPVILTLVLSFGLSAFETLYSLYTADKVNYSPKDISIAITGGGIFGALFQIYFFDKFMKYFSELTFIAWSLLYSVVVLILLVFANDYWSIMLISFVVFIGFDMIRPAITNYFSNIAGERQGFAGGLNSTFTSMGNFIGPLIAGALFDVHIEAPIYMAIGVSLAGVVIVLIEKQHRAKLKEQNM
Description: Amphipol-purified NorA underwent an additional round of SEC to remove free amphipol. Purified Fabs were prepared as described above and labelled with a primary amine-reactive 647 nm fluorophore (Nanotemper) according to the manufacturer's instructions. Efficient labelling was verified spectroscopically by measuring absorbance at 280 and 650 nm. Microscale thermophoresis (MST) experiments were performed on a Monolith NT.115 Pico instrument (Nanotemper Technologies). Labelled Fab at 40 nM final concentration was mixed with NorA in 20 mM Tris pH 7.0, 100 mM NaCl, and 0.025% (w/v) Tween-20. All samples were incubated for 15 min and loaded into premium glass capillaries. The normalized fluorescent signal (Fnorm) was plotted as a function of ligand concentration and fit with a non-linear sigmoidal regression model (GraphPad Prism) using a Hill slope equal to 1.0 to obtain the Kd values. The error in Kd values for Fab25 (1.2±0.7 μM) and Fab36 (140±20 nM) represent the average and standard deviation of two independent runs with three replicates per independent run. The error range in the Kd value for Fab36^W133A (2 to 4 μM) corresponds to the 95% confidence interval of the non-linear fit. […] MST binding experiments with Fab36^W133A and Fab36^R134A were collected with three replicates each.

[3] = biological target: T1, NorA; assay: Inhibition of NorA by Fabs in E. coli (co-expression growth inhibition assay); type: cell-based, S. aureus; settings: E. coli co-expressing NorA and Fab; for E. coli growth inhibition in the presence of norfloxacin: 1.2 μg/ml norfloxacin, arabinose-induced Fab, OD600nm; for E. coli growth inhibition in the absence of norfloxacin: no norfloxacin
Description: NorA was encoded in a pTrcHis2C plasmid (ampicillin resistance) with a C-terminal myc-tag (Yu et al., “NorA Functions as a Multidrug Efflux Protein in Both Cytoplasmic Membrane Vesicles and Reconstituted Proteoliposomes,” J Bacteriol 184:1370-1377 (2002), which is hereby incorporated by reference in its entirety), while Fabs were cloned in a pBAD33 plasmid (gentamicin resistance) (Jimenez et al., “Genetics and Proteomics of Aeromonas salmonicida Lipopolysaccharide Core Biosynthesis,” J Bacteriol 191:2228-2236 (2009), which is hereby incorporated by reference in its entirety) with a C-terminal Avi-tag on the heavy chain of the Fab. Competent Top10 E. coli were co-transformed with vectors containing NorA and Fabs (Fab25, Fab36, or Fabcontrol) and grown on LB agar plates infused with carbenicillin and gentamicin. For time dependent growth curves, a single colony from the transformation was inoculated into TBG media in the presence of carbenicillin and gentamicin. The culture was grown to saturation for ˜20 hr at 30° C. Cultures were diluted by 300-fold into fresh TBG media containing carbenicillin and gentamicin, norfloxacin (0 or 1.2 μg/ml), and arabinose (0%, 0.0001%, 0.0005%, 0.0025%, 0.01%, 0.05%, 0.1%, 0.2%, 0.4%, or 0.8%). OD600nm was measured as a function of time in a BioScreen Pro C device at 30° C. with shaking between measurements every 15 min. Four independent experiments were acquired with two technical replicates per experiment; reported errors reflect the standard deviation among the experiments. Immunoblot (IB) analyses were performed on E. coli lysates co-expressing NorA and Fabs following 24 hr of growth in TBG media in the absence of norfloxacin. Primary antibodies at 1:1,000 dilutions detected the C-terminal myc tag on NorA (Genscript) and the C-terminal Avi tag on the heavy chain of the Fab (Genscript). IB analyses were repeated two independent times.
The insertion of Fab CDRH3 loops into the substrate binding pocket of NorA, as observed in the cryo-EM structures, afforded the expectation that Fab binding would inhibit antibiotic efflux (FIGS. 1A-1D, 4G). […] Since NorA is located within the inner membrane and confers norfloxacin resistance to E. coli (FIG. 6D), growth inhibition was assessed by co-expressing Fabs in the periplasm to allow access to the extracellular face of NorA. Growth curves (OD600 nm vs. time) were quantified with or without norfloxacin and with variable concentrations of arabinose for inducing Fab expression.

[4] = biological target: T1, NorA; assay: NorA pull-down from E. coli co-expressing NorA and Fabs, immunoblot; type: binding, S. aureus; settings: co-expression with 0.2% arabinose
[5] = biological target: T2, S. aureus NorA with a carboxy-terminal decahistidine tag, purified (Staphylococcus aureus), Q5HHX4
T2 chain: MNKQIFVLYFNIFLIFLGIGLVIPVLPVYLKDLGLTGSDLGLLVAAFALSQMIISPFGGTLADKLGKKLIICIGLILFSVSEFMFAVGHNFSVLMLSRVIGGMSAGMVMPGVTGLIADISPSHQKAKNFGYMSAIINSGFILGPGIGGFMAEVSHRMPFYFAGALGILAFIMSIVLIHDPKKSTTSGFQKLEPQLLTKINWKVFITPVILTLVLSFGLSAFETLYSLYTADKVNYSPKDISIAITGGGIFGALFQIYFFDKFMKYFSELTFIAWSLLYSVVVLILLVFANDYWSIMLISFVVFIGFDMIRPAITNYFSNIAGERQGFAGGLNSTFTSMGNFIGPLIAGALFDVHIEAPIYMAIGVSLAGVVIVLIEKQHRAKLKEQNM

[6] = biological target: T2, S. aureus NorA with a carboxy-terminal …
[7] = biological target: T3, Native NorA of MRSA (USA300 strain JE2) (Staphylococcus aureus), Q5HHX4; assay: cell-based or functional assay
T3 chain: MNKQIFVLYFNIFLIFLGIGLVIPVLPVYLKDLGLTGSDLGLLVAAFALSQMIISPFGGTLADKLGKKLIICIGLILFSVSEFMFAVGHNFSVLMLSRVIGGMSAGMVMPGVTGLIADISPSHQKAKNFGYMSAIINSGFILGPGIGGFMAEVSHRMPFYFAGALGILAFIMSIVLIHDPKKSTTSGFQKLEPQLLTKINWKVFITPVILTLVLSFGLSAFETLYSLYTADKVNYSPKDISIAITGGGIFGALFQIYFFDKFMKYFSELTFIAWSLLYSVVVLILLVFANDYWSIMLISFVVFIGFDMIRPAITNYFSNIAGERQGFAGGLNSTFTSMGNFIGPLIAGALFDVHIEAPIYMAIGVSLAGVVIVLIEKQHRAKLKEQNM

[8] = biological target: T4, S. aureus NorA with a carboxy-terminal decahistidine tag, purified (Staphylococcus aureus, UniProt Q5HHX4 1-388)
T4 sequence: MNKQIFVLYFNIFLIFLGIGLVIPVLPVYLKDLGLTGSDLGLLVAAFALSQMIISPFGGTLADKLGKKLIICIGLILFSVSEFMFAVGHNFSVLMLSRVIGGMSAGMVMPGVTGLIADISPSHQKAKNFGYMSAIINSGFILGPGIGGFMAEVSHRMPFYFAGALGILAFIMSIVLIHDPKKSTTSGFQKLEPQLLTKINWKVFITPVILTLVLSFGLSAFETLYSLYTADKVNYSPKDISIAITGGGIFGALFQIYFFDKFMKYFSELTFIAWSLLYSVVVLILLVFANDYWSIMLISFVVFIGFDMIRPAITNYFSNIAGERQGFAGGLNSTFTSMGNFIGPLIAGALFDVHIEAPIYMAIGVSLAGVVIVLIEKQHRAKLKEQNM

[9] = biological target: T4, S. aureus NorA with a carboxy-terminal …; assay: MST
[10] = biological target: T4, S. aureus NorA with a carboxy-terminal …; remark: listed apart in the source
[11] = biological target: T4, S. aureus NorA with a carboxy-terminal …; assay: MST; range is the 95% confidence interval of the non-linear fit

Molecule: NH2-YYYYAWEVGGYWR-CONH2 (H-YYYYAWEVGGYWR-NH2) [NPI-2, control peptide substituting a glutamate for the arginine residue in the tryptophan-arginine motif, reference compound]
- growth arrest of MRSA in the presence of norfloxacin [1]: displayed no growth arrest of MRSA

B1: Fab25: synthetic antigen-binding fragment binding NorA; CDRH3 SEQ ID NO: 6; VH SEQ ID NO: 30, VL SEQ ID NO: 31 (antibody, V domains shown)
VH: EVQLVESGGGLVQPGGSLRLSCAASGFTFSSSSIHWVRQAPGKGLEWVASISSSSGSTSYADSVKGRFTISADTSKNTAYLQMNSLRAEDTAVYYCARWETGYYPYWRMYGFYWALDYWGQGTLVTVSS
VL: DIQMTQSPSSLSASVGDRVTITCRASQSVSSAVAWYQQKPGKAPKLLIYSASSLYSGVPSRFSGSRSGTDFTLTISSLQPEDFATYYCQQSSSSLITFGQGTKVEIKRTV
modifications: NorA Antibody N3-25, Heavy Chain Variable Region; NorA Antibody N3-25, Light Chain Variable Region
- Kd [2]: 1200 ± 700 nM
- E. coli growth inhibition in the presence of norfloxacin [3]: showed inhibition of NorA, albeit to a lesser extent than for Fab36
- E. coli growth inhibition in the absence of norfloxacin [3]: no growth inhibition
- Fab in elution fraction of purified NorA [4]: contained the Fabs as detected through immunoblotting

Molecule: H-YYYYAWRVGGYWR-NH2 [NPI-1 (NorA peptide inhibitor), NH2-…-CONH2]
- EC50 [5]: 6290 nM
- IC50 (read off the curve) [6]: 7000 nM
- IC50 of dose-dependent growth inhibition of MRSA in the presence of norfloxacin (12.5 µg/ml), 10 hr timepoint [7]: 720 nM

B2: Fab36 (Fab, V domains shown)
VH: EVQLVESGGGLVQPGGSLRLSCAASGFTFSSSSIHWVRQAPGKGLEWVASISSSSGSTSYADSVKGRFTISADTSKNTAYLQMNSLRAEDTAVYYCARYSRYYYYAWRVGGYWGGLDYWGQGTLVTVSS
VL: DIQMTQSPSSLSASVGDRVTITCRASQSVSSAVAWYQQKPGKAPKLLIYSASSLYSGVPSRFSGSRSGTDFTLTISSLQPEDFATYYCQQSSSSLITFGQGTKVEIKR
notes: also called N3-36
- Kd [8]: 140 nM
- fold tighter binding affinity against Fab25 [9]: ~9 fold

B3: Fab36: synthetic antigen-binding fragment binding NorA; CDRH3 SEQ ID NO: 7; VH SEQ ID NO: 32, VL SEQ ID NO: 33 (antibody, V domains shown)
VH: EVQLVESGGGLVQPGGSLRLSCAASGFTFSSSSIHWVRQAPGKGLEWVASISSSSGSTSYADSVKGRFTISADTSKNTAYLQMNSLRAEDTAVYYCARYSRYYYYAWRVGGYWGGLDYWGQGTLVTVSS
VL: DIQMTQSPSSLSASVGDRVTITCRASQSVSSAVAWYQQKPGKAPKLLIYSASSLYSGVPSRFSGSRSGTDFTLTISSLQPEDFATYYCQQSSSSLITFGQGTKVEIKRTV
modifications: NorA Antibody N3-36, Heavy Chain Variable Region; NorA Antibody N3-36, Light Chain Variable Region
- E. coli growth inhibition in the presence of norfloxacin [3]: strongly attenuated E. coli growth in an arabinose-dependent manner
- E. coli growth inhibition in the absence of norfloxacin [3]: no growth inhibition
- Fab in elution fraction of purified NorA [4]: contained the Fabs as detected through immunoblotting

B4: Fab36^R134A (antibody, V domains shown)
VH: EVQLVESGGGLVQPGGSLRLSCAASGFTFSSSSIHWVRQAPGKGLEWVASISSSSGSTSYADSVKGRFTISADTSKNTAYLQMNSLRAEDTAVYYCARYSRYYYYAWAVGGYWGGLDYWGQGTLVTVSS
VL: DIQMTQSPSSLSASVGDRVTITCRASQSVSSAVAWYQQKPGKAPKLLIYSASSLYSGVPSRFSGSRSGTDFTLTISSLQPEDFATYYCQQSSSSLITFGQGTKVEIKRTV
- Kd [2]: > 14000 nM

B5: Fab36^R134A (Fab, V domains shown)
VH: EVQLVESGGGLVQPGGSLRLSCAASGFTFSSSSIHWVRQAPGKGLEWVASISSSSGSTSYADSVKGRFTISADTSKNTAYLQMNSLRAEDTAVYYCARYSRYYYYAWAVGGYWGGLDYWGQGTLVTVSS
VL: DIQMTQSPSSLSASVGDRVTITCRASQSVSSAVAWYQQKPGKAPKLLIYSASSLYSGVPSRFSGSRSGTDFTLTISSLQPEDFATYYCQQSSSSLITFGQGTKVEIKR
- fold reduced binding affinity against Fab36 [9]: > 100 fold

B6: Fab36^W133A (Fab, V domains shown)
VH: EVQLVESGGGLVQPGGSLRLSCAASGFTFSSSSIHWVRQAPGKGLEWVASISSSSGSTSYADSVKGRFTISADTSKNTAYLQMNSLRAEDTAVYYCARYSRYYYYAARVGGYWGGLDYWGQGTLVTVSS
VL: DIQMTQSPSSLSASVGDRVTITCRASQSVSSAVAWYQQKPGKAPKLLIYSASSLYSGVPSRFSGSRSGTDFTLTISSLQPEDFATYYCQQSSSSLITFGQGTKVEIKR
- fold reduced binding affinity against Fab36 [9]: ~20 fold
- Kd [10]: 2800 nM
- Kd [11]: 2000 to 4000 nM
